Test results: paper PMC7339825 (Nature structural & molecular biology, 2020)

B1: binary TSG101-VPS28 ESCRT-I head subcomplex, wild type (complex)
chain 1: QSENNDIDEVIIPTAPLYKQILNLYAEENAIEDTIFYLGEALRRGVIDLDVFLKHVRLLSRKQFQLRALMQKARKTAGLSD
chain 2: MFHGIPATPGIGAPGNKPELYEEVKLYKNAREREKYDNMAELFAVVKTMQALEKAYIKDCVSPSEYTAACSRLLVQYKAAFRQVQGSEISSIDEFCRKFRLDCPLAMERIKEDRPITIKDDK

Columns and labels:
SEC = target: the molecule itself; test: SEC
[1] = target: B1; test: pull-down

Row | Binder | binding result (SEC) | binding result [1]
1 | B1 | binds | 
2 | GST-TSG101 UEV domain (residues 2-145) (domain or fragment) AVSESQLKKMVSKYKYRDLTVRETVNVITLYKDLKPVLDSYVFNDGSSRELMNLTGTIPVPYRGNTYNIPICLWLLDTYPYNPPICFVKPTSSMTIKTGKHVDANGKIYLPYLHEWKHPQSDLLGLIQVMIVVFGDEPPVFSRP |  | binds
